Target: human CXCR2 (human) (UniProt P25025)
Assay: cell-based or functional assay

Chain of human CXCR2 (human) (P25025 whole entry): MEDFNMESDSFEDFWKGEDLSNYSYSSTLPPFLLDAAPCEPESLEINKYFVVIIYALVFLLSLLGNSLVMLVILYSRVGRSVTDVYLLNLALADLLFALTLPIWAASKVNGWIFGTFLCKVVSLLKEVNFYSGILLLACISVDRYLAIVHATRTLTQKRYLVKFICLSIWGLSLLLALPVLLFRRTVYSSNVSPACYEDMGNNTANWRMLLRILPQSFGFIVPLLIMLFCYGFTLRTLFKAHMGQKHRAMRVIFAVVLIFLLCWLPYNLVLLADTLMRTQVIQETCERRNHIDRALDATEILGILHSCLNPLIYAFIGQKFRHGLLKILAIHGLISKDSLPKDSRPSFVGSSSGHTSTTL

EC50 mean, Tango assay: 0.0396 µM
EC50 mean, calcium flux assay: 0.00714 µM
B1: human CXCL7 (ligand, UniProt P02775 59-128, looked up)
chain: AELRCMCIKTTSGIHPKNIQSLEVIGKGTHCNQVEVIATLKDGRKICLDPDAPRIKKIVQKKLAGDESAD

— patent US20240301076A1
